Reference: patent publication US20050201975A1 (published 2005)

Assays:
GAL4BD alone = molecular target: T1, GAL4BD alone (UniProt P04386 1-147); assay: yeast two-hybrid (HIS3, ADE2, LacZ reporters) in AH109
T1 construct: domain: GAL4BD; Three empty GAL4BD expression constructs were used as controls; also called pBD-GAL4cam; pBRIDGE
Source text: AH109pLOR67 and AH109 transformed with GAL4BD expression constructs pBD-GAL4cam (Stratagene), pBRIDGE (Clontech) and pLOR32 were used to assess whether the GAL4AD fusion proteins encoded by plasmids 8-2 and 8-7 interacted in a repeatable and specific manner with the Notch1(₁₇₆₂₋₁₈₂₉) domain of the GAL4BDN1(₁₇₆₂₋₁₈₂₉) fusion protein.
These yeast stains along with AH109pLOR67 were then transformed with either 8-2 (CBF 1 fragment) or 8-7 and plated on —WL, —WLH, —WLHA, —WLHAXαGAL plates. An alternative to XaGAL was also employed to assess LacZ expression. Yeast colonies grown on —WLHA plates, were transferred to filter paper by placing the appropriately sized piece of 3 mm Whatman paper over the screen plate and pressing down firmly over the whole surface of the plate. The orientation of the paper was then marked and the paper lifted with a jerking action, lifting the colonies from the agar. The yeast colonies were permeabilised by placing the filter papers in liquid nitrogen, and then allowing them to thaw. This cycle was repeated three times in total. 1.8 ml Z buffer containing X-gal was added to each filter paper, the papers were then monitored for the next 6 hours for the production of blue colour.

GAL4AD protein = molecular target: T2, GAL4AD protein (UniProt P04386 768-881); assay: yeast two-hybrid bait specificity check in AH109pLOR67
T2 construct: domain: GAL4AD
T2 sequence (looked up): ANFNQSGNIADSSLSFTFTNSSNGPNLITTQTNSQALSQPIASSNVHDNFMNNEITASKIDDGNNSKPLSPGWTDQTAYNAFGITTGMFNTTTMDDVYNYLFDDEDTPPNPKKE

B1: GAL4AD fusion protein encoded by plasmid 8-7 (splice variant of the human homologue of mouse C2PA) (other, not shown: small tags and cut ends)
chain: GRATQGAHARLTGPVRAPAAGGELGFHGAAAEAGPAAMNRFNGLCKVCSERRYRQITIPRGKDGFGFTICCDSPVRVQAVDSGGPAERAGLQQLDTVLQLNERPVEHWKCVELAHEIRSCPSEIILLVWRMVPQVKPGPDGGVLRRASCKSTHDLQSPPNKREKNCTHGVQARPEQRHSCHLVCDSSDGLLLGGWERYTEVAKRGGQHTLPALSRATAPTDPNYIILAPLNPGSQLLRPVYQEDTIPEESGSPSKGKSYTGLGKKSRLMKTVQTMKGHGNYQNCPVVRPHATHSSYGTYVTLAPKVLVFPVFVQPLDLCNPARTLLLSEELLLYEGRNKAAEVTLFAYSDLLLFTKEDEPGRCDVLRNPLYLQSVKLQEGSSEDLKFCVLYLAEKAECLFTLEAHSQEQKKRVCWCLSENIAKQQQLAASPPDSKKLHPFGSLQQEMGPVNSTNATQDRSFTSPGQTLIG
notes: Prey from a human spleen cDNA library (Clontech); also called colony 8-7
binding result (GAL4BD alone): no binding

B2: GAL4BD-N1 fragment (1762-1829) fusion protein (other)
chain: MKLLSSIEQACDICRLKKLKCSKEKPKCAKCLKNNWECRYSPKTKRSPLTRAHLTEVESRLERLEQLFLLIFPREDLDMILKMDSLQDIKALLTGLFVQDNVNKDAVTDRLASVETDMPLTLRQHRISATSSSEESSNKGQRQLTVSPEFRRQHGQLWFPEGFKVSEASKKKRREPLGEDSVGLKPLKNASDGALMDDNQNEWGDEDLETKKFRFEDPSTCSQANSGRISYDL
notes: Expressed in yeast strain AH109 from pLOR67 (yeast two-hybrid bait); Notch1 numbering per AAG33848; also called bait protein
binding result (GAL4AD protein): no binding
